Laboratory results as given in patent EP3926342A1.

Columns and labels:
[1] = target: biotinylated RV89 (human rhinovirus) (UniProt P07210)
[2] = target: recombinant human ICAM-1/CD54 (R&D Systems) (human) (UniProt P05362)
[3] = target: human rhinovirus strain RV2 (minor group RV-A), purified virus (human rhinovirus) (UniProt P04936); experiment: fluid phase competition ELISA: RV2 (5 µg/ml as printed here) pre-incubated with 50 µg/ml soluble LDLR, then added to plate-bound LDLR
[4] = target: human rhinovirus strain RV89 (major group RV-A), purified virus (human rhinovirus) (UniProt P07210); experiment: fluid phase competition ELISA: RV89 (25 µg/ml) pre-incubated with 50 µg/ml soluble ICAM-1, then added to plate-bound ICAM-1
Sequence of human rhinovirus strain RV89 (major group RV-A), purified virus (human rhinovirus) (P07210 2-866): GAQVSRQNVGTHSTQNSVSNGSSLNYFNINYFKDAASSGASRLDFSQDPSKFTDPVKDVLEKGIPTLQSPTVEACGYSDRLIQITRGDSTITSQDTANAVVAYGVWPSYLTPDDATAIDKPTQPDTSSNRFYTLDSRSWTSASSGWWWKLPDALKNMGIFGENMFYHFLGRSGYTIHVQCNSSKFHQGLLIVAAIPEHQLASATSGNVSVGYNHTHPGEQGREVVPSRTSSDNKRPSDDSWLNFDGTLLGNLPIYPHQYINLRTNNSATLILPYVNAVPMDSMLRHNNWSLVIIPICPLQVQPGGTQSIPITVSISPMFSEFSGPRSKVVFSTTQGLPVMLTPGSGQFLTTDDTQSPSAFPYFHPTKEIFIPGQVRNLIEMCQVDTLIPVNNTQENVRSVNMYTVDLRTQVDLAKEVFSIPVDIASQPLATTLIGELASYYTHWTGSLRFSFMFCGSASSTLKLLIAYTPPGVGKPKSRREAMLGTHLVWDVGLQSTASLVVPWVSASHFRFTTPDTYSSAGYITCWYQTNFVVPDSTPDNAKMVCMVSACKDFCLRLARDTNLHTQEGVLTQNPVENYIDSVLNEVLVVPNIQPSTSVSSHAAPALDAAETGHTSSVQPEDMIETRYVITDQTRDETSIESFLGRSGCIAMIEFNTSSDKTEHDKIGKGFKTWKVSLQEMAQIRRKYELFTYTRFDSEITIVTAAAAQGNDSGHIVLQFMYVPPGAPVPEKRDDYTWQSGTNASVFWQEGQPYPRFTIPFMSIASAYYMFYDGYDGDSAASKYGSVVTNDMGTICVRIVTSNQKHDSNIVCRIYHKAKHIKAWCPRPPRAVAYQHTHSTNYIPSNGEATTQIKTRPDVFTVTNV

Sequence of recombinant human ICAM-1/CD54 (R&D Systems) (human) (P05362 28-480 limits assumed): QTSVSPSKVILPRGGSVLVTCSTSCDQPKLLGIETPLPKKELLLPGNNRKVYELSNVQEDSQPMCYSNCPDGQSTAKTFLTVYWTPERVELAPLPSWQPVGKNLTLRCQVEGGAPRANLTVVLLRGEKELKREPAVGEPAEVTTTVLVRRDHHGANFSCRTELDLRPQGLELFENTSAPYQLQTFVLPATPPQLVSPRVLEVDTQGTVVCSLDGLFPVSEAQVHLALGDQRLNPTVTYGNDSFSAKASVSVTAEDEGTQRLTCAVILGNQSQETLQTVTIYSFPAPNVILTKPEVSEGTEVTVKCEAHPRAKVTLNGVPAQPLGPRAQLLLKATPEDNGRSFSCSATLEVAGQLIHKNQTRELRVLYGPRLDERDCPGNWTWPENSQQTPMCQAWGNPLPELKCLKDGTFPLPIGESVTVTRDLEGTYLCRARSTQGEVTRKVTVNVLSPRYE
Sequence of human rhinovirus strain RV2 (minor group RV-A), purified virus (human rhinovirus) (P04936 2-850): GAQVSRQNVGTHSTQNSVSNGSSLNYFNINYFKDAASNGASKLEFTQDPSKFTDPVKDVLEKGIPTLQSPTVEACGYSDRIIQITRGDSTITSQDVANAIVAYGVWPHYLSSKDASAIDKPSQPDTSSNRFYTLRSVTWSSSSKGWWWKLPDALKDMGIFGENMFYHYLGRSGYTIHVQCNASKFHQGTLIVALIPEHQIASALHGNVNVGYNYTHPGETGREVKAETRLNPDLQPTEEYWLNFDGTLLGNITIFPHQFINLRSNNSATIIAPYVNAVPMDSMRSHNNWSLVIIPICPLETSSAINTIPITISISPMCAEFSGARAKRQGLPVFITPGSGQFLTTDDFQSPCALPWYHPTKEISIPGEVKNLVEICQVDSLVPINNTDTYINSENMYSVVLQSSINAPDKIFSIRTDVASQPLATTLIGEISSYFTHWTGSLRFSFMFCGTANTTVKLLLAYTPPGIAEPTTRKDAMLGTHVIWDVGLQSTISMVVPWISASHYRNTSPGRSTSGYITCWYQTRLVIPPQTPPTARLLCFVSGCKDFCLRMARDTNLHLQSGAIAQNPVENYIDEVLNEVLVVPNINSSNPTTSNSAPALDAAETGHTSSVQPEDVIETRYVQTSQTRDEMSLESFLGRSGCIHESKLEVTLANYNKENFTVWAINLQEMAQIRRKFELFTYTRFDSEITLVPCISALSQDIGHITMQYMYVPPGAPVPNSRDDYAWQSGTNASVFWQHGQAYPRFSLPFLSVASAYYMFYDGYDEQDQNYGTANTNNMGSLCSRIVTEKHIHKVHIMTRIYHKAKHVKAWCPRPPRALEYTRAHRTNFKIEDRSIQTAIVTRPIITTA
Sequence of recombinant human ICAM-1/CD54 (R&D Systems) (P05362 28-480 limits assumed): as the sequence (P05362 28-480 limits assumed) above
Sequence of biotinylated RV89 (human rhinovirus) (P07210 2-866): as the sequence (P07210 2-866) above

“ultrasensitive Streptavidin-Peroxidase Polymer (Merck) (from UniProt P22629 37-163)” showed a lowest coated concentration of biotinylated RV89 that was detected [1] of 0.625 µg/mL.

“biotinylated RV89 (from UniProt P07210 2-866)” gave a lowest virus concentration at which binding to ICAM-1 was detected [2] of 6.25 µg/mL.

“human rhinovirus strain RV89 (major group RV-A), purified virus (from UniProt P07210 2-866)” showed a lowest virus concentration at which binding to ICAM-1 was detected [2] of 6.25 µg/mL.

Work on “recombinant human LDLR (R&D Systems) (from UniProt P01130 22-788) (receptor)” yielded a percent inhibition of RV2 binding to plate-bound LDLR [3] of over 60%.

“recombinant human ICAM-1/CD54 (R&D Systems) (from UniProt P05362 28-480) (receptor)” gave a percent inhibition of RV89 binding to plate-bound ICAM-1 [4] of over 95%.
